The text below walks through data of PMC9377591.

Assay [1] deals with V5-tagged Steppke (Step-V5-His) (Drosophila). Nature of the assay: co-IP; FLAG-tagged Jub constructs co-expressed with a V5-tagged partner in Drosophila S2 cells; lysis and washes in RIPA buffer (140 mM NaCl, 10 mM Tris-HCl pH 8.0, 1 mM EDTA, 1.0% Triton X-100, 0.1% SDS, 0.1% sodium deoxycholate); precipitated with anti-V5 agarose beads, blotted with anti-FLAG; band intensity normalised to full length Jub.

Assay [2] addresses N2 domain of α-catenin, tagged with V5 (Drosophila) (UniProt P35220). The description is as above.
Chain of UniProt P35220 (P35220 whole entry, the tested form may be a part): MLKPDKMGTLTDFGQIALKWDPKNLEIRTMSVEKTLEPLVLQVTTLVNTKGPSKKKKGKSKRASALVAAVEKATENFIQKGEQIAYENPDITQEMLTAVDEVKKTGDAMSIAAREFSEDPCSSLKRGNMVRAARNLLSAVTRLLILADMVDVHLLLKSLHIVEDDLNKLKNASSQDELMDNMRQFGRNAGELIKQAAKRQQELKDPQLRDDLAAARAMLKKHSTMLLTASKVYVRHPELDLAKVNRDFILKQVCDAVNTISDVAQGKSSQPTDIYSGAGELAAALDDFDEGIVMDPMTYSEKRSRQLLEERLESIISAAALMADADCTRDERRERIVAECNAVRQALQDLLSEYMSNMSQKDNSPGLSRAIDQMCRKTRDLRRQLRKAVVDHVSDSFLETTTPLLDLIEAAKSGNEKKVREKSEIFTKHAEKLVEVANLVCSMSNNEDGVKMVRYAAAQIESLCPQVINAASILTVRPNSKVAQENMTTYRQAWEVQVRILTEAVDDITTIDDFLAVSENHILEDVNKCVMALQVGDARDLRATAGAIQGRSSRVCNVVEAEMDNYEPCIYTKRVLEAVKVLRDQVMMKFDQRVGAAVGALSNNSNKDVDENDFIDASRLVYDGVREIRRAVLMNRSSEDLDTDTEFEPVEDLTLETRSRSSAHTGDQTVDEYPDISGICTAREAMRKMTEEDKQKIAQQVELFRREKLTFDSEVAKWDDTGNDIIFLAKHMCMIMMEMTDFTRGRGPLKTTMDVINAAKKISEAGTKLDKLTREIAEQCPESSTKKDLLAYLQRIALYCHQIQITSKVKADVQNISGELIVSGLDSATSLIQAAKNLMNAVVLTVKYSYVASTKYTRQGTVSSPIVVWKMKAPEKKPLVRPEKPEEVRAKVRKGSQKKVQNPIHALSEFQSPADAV

Regarding “Jub preLIM+LIM1 (1-559 and 693-718), FLAG-tagged (from UniProt Q9VY77 1-559; Q9VY77 693-718) (domain or fragment)”, in assay [1], the co-precipitation relative to full length Jub (% of full length) was found to be 30.

Take “Jub preLIM+LIM2 (1-505, 571-623, and 693-718), FLAG-tagged (from UniProt Q9VY77 1-505; Q9VY77 571-623; Q9VY77 693-718) (domain or fragment)”: the co-precipitation relative to full length Jub (% of full length) in assay [1] is more than 64.

As for “Jub preLIM+LIM3 (1-505 and 631-718), FLAG-tagged (from UniProt Q9VY77 1-505; Q9VY77 631-718) (domain or fragment)”, the co-precipitation relative to full length Jub (% of full length) in assay [1] is 30.

Consider “Jub preLIM+LIM12 (1-623 and 693-718), FLAG-tagged (from UniProt Q9VY77 1-623; Q9VY77 693-718) (domain or fragment)”, for which the co-precipitation relative to full length Jub (% of full length) in assay [1] is more than 64. In assay [2], this substance had a co-immunoprecipitation relative to full length Jub (% of full length) of 170.

In turn, “Jub preLIM+LIM13 (1-570 and 631-718), FLAG-tagged (from UniProt Q9VY77 1-570; Q9VY77 631-718) (domain or fragment)” showed a co-precipitation relative to full length Jub (% of full length) in assay [1] of more than 64. The substance further displayed a co-immunoprecipitation relative to full length Jub (% of full length) in assay [2] of 50.

Consider “Jub preLIM+LIM23 (1-505, 571-718), FLAG-tagged (from UniProt Q9VY77 1-505; Q9VY77 571-718) (domain or fragment)”, for which the co-precipitation relative to full length Jub (% of full length) in assay [1] was more than 64. In assay [2], this substance returned a co-immunoprecipitation relative to full length Jub (% of full length) of 780.

“Jub-preLIM (1-505), FLAG-tagged (from UniProt Q9VY77 1-505) (domain or fragment)” displayed a co-immunoprecipitation relative to full length Jub (% of full length) in assay [2] of 24.
